# Test results as given in paper PMC9482650, “Quantitative fragmentomics allow affinity mapping of interactomes” (Nature Communications, 2022).
# Residue numbers refer to the chain shown, from its start.
# T1: DLG3_1, Q92796
# T1 sequence (Q92796 125-227, limits assumed, looked up): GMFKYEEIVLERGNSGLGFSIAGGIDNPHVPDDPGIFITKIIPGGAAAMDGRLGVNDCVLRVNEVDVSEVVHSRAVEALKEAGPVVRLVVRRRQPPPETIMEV
# T2: DLG3_3, Q92796
# T2 sequence (Q92796 374-475, limits assumed, looked up): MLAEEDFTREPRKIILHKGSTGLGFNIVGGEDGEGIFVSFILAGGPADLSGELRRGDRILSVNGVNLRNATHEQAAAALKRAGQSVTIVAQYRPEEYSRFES
# T3: DVL3, Q92997
# T3 sequence (Q92997 244-331, limits assumed, looked up): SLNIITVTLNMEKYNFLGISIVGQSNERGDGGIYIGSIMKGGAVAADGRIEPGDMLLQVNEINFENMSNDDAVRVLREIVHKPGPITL
# T4: LIN7A, O14910
# T4 sequence (O14910 103-200, limits assumed, looked up): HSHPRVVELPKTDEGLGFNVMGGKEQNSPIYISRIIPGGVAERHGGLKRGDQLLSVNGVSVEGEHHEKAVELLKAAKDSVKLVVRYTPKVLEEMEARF
# T5: LIN7B, Q9HAP6
# T5 sequence (Q9HAP6 88-185, limits assumed, looked up): T4 sequence (O14910 103-200, limits assumed, looked up) with S2A, V20I, I35V, E42D, H65Q, K77Q, D78G, K89R
# T6: MPDZ_12, O75970
# T6 sequence (O75970 1857-1958, limits assumed, looked up): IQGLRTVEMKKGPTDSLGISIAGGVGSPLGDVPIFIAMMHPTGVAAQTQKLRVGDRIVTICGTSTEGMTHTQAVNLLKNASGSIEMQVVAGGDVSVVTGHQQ
# T7: PCLO, Q9Y6V0
# T7 sequence (Q9Y6V0 4491-4600, limits assumed, looked up): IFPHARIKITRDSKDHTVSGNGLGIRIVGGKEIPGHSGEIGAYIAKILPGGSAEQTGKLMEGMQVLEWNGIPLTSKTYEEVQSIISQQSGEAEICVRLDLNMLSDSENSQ
# T8: PTPN13_1, Q12923
# T8 sequence (Q12923 1088-1188, limits assumed, looked up): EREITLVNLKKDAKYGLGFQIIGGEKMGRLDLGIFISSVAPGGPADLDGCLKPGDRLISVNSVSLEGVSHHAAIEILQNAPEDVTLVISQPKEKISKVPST
# T9: SHANK1, Q9Y566
# T9 sequence (Q9Y566 658-767, limits assumed, looked up): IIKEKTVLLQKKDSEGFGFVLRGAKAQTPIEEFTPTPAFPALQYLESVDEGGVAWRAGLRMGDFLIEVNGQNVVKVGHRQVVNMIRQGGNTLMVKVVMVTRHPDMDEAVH
# T10: TX1BP3, O14907
# T10 sequence (O14907 10-122, limits assumed, looked up): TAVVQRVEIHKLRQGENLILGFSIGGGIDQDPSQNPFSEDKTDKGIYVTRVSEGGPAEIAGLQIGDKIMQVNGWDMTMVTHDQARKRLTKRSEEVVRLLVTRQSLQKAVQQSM
# Molecular target: ARHGEF12, Q9NZN5-2
# Experiment: holdup assay
# Parameters: key: below the threshold = too weak to quantify, mostly under pKd 3.1 to 4
# Settings: plain residues with an end cap or a label only (N-terminal biotin on a linker: ado-ado)
# Sequence of ARHGEF12, Q9NZN5-2 (Q9NZN5 other isoform, or with tags, fused parts or gaps): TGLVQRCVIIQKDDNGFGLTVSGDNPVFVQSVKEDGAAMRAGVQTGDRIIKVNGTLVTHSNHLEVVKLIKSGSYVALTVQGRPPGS
row,Binder,pKd
1,"ATKDKKITTV [EXOC4, Q96A65]",4.87
2,"GDSSRKEYFI [GYPC, P04921]",below the threshold

# Molecular target: DLG1_2, Q12959
# Experiment: holdup assay
# Parameters: key: below the threshold = too weak to quantify, mostly under pKd 3.1 to 4
# Settings: plain residues with an end cap or a label only (N-terminal biotin on a linker: ado-ado)
# Sequence of DLG1_2, Q12959 (Q12959 314-412): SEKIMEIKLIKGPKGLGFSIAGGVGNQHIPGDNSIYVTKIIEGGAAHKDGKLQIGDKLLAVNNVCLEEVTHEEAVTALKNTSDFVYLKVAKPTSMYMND
row,Binder,pKd
1,"ATKDKKITTV [EXOC4, Q96A65]",5.91
2,"GDSSRKEYFI [GYPC, P04921]",3.95

# Molecular target: T1, DLG3_1, Q92796
# Experiment: holdup assay
# Parameters: key: below the threshold = too weak to quantify, mostly under pKd 3.1 to 4
# Settings: plain residues with an end cap or a label only (N-terminal biotin on a linker: ado-ado)
row,Binder,pKd
1,"ATKDKKITTV [EXOC4, Q96A65]",4.59
2,"GDSSRKEYFI [GYPC, P04921]",below the threshold

# Molecular target: T2, DLG3_3, Q92796
# Experiment: holdup assay
# Parameters: key: below the threshold = too weak to quantify, mostly under pKd 3.1 to 4
# Settings: plain residues with an end cap or a label only (N-terminal biotin on a linker: ado-ado)
row,Binder,pKd
1,"ATKDKKITTV [EXOC4, Q96A65]",4.56
2,"GDSSRKEYFI [GYPC, P04921]",below the threshold

# Molecular target: DLG5_1, Q8TDM6
# Experiment: holdup assay
# Parameters: key: below the threshold = too weak to quantify, mostly under pKd 3.1 to 4
# Settings: plain residues with an end cap or a label only (N-terminal biotin on a linker: ado-ado)
# Sequence of DLG5_1, Q8TDM6 (Q8TDM6 617-713): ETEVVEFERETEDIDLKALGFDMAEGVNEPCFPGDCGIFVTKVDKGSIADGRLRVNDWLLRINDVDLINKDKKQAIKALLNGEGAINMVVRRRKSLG
row,Binder,pKd
1,"ATKDKKITTV [EXOC4, Q96A65]",3.59
2,"GDSSRKEYFI [GYPC, P04921]",below the threshold

# Molecular target: T3, DVL3, Q92997
# Experiment: holdup assay
# Parameters: key: below the threshold = too weak to quantify, mostly under pKd 3.1 to 4
# Settings: plain residues with an end cap or a label only (N-terminal biotin on a linker: ado-ado)
row,Binder,pKd
1,"ATKDKKITTV [EXOC4, Q96A65]",below the threshold
2,"GDSSRKEYFI [GYPC, P04921]",4.34

# Molecular target: FRMPD2_1, Q68DX3
# Experiment: holdup assay
# Parameters: key: below the threshold = too weak to quantify, mostly under pKd 3.1 to 4
# Settings: plain residues with an end cap or a label only (N-terminal biotin on a linker: ado-ado)
# Sequence of FRMPD2_1, Q68DX3 (Q68DX3 770-861): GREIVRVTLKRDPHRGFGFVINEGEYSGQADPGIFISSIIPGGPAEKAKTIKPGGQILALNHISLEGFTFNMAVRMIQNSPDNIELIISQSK
row,Binder,pKd
1,"ATKDKKITTV [EXOC4, Q96A65]",3.54
2,"GDSSRKEYFI [GYPC, P04921]",below the threshold

# Molecular target: GOPC, Q9HD26
# Experiment: holdup assay
# Parameters: key: below the threshold = too weak to quantify, mostly under pKd 3.1 to 4
# Settings: plain residues with an end cap or a label only (N-terminal biotin on a linker: ado-ado)
row,Binder,pKd
1,"ATKDKKITTV [EXOC4, Q96A65]",3.87
2,"GDSSRKEYFI [GYPC, P04921]",below the threshold

# Molecular target: GORASP2, Q9H8Y8
# Experiment: holdup assay
# Parameters: key: below the threshold = too weak to quantify, mostly under pKd 3.1 to 4
# Settings: plain residues with an end cap or a label only (N-terminal biotin on a linker: ado-ado)
row,Binder,pKd
1,"ATKDKKITTV [EXOC4, Q96A65]",4.64
2,"GDSSRKEYFI [GYPC, P04921]",4.61

# Molecular target: GRASP, Q7Z6J2
# Experiment: holdup assay
# Parameters: key: below the threshold = too weak to quantify, mostly under pKd 3.1 to 4
# Settings: plain residues with an end cap or a label only (N-terminal biotin on a linker: ado-ado)
# Sequence of GRASP, Q7Z6J2 (Q7Z6J2 96-193): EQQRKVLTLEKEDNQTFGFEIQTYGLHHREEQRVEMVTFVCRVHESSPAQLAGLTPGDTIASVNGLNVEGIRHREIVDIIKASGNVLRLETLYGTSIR
row,Binder,pKd
1,"ATKDKKITTV [EXOC4, Q96A65]",3.95
2,"GDSSRKEYFI [GYPC, P04921]",below the threshold

# Molecular target: GRID2IP_1, A4D2P6
# Experiment: holdup assay
# Parameters: key: below the threshold = too weak to quantify, mostly under pKd 3.1 to 4
# Settings: plain residues with an end cap or a label only (N-terminal biotin on a linker: ado-ado)
# Sequence of GRID2IP_1, A4D2P6 (A4D2P6 1-87): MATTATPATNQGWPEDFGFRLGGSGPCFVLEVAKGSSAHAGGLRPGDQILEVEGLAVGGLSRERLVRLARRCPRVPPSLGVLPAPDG
row,Binder,pKd
1,"ATKDKKITTV [EXOC4, Q96A65]",below the threshold
2,"GDSSRKEYFI [GYPC, P04921]",below the threshold

# Molecular target: Inadl_1, Q8NI35
# Experiment: holdup assay
# Parameters: key: below the threshold = too weak to quantify, mostly under pKd 3.1 to 4
# Settings: plain residues with an end cap or a label only (N-terminal biotin on a linker: ado-ado)
# Sequence of Inadl_1, Q8NI35 (Q8NI35 113-229): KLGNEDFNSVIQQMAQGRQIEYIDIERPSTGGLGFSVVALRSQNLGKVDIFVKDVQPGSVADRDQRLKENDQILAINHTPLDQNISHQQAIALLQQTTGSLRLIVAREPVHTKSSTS
row,Binder,pKd
1,"ATKDKKITTV [EXOC4, Q96A65]",below the threshold
2,"GDSSRKEYFI [GYPC, P04921]",4.12

# Molecular target: Inadl_10, Q8NI35
# Experiment: holdup assay
# Parameters: key: below the threshold = too weak to quantify, mostly under pKd 3.1 to 4
# Settings: plain residues with an end cap or a label only (N-terminal biotin on a linker: ado-ado)
# Sequence of Inadl_10, Q8NI35 (Q8NI35 1673-1763): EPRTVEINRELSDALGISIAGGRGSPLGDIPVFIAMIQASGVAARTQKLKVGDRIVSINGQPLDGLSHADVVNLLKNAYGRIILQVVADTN
row,Binder,pKd
1,"ATKDKKITTV [EXOC4, Q96A65]",below the threshold
2,"GDSSRKEYFI [GYPC, P04921]",below the threshold

# Molecular target: Inadl_5, Q8NI35
# Experiment: holdup assay
# Parameters: key: below the threshold = too weak to quantify, mostly under pKd 3.1 to 4
# Settings: plain residues with an end cap or a label only (N-terminal biotin on a linker: ado-ado)
# Sequence of Inadl_5, Q8NI35 (Q8NI35 673-780): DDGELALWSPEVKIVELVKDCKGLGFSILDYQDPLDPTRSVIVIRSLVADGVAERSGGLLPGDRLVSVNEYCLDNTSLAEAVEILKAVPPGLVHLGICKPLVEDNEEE
row,Binder,pKd
1,"ATKDKKITTV [EXOC4, Q96A65]",below the threshold
2,"GDSSRKEYFI [GYPC, P04921]",5.16

# Molecular target: Inadl_9, Q8NI35
# Experiment: holdup assay
# Parameters: key: below the threshold = too weak to quantify, mostly under pKd 3.1 to 4
# Settings: plain residues with an end cap or a label only (N-terminal biotin on a linker: ado-ado)
# Sequence of Inadl_9, Q8NI35 (Q8NI35 1530-1615): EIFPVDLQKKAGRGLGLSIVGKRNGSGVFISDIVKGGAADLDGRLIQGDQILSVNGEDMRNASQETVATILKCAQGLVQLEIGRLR
row,Binder,pKd
1,"ATKDKKITTV [EXOC4, Q96A65]",3.63
2,"GDSSRKEYFI [GYPC, P04921]",3.51

# Molecular target: T4, LIN7A, O14910
# Experiment: holdup assay
# Parameters: key: below the threshold = too weak to quantify, mostly under pKd 3.1 to 4
# Settings: plain residues with an end cap or a label only (N-terminal biotin on a linker: ado-ado)
row,Binder,pKd
1,"ATKDKKITTV [EXOC4, Q96A65]",3.52
2,"GDSSRKEYFI [GYPC, P04921]",below the threshold

# Molecular target: T5, LIN7B, Q9HAP6
# Experiment: holdup assay
# Parameters: key: below the threshold = too weak to quantify, mostly under pKd 3.1 to 4
# Settings: plain residues with an end cap or a label only (N-terminal biotin on a linker: ado-ado)
row,Binder,pKd
1,"ATKDKKITTV [EXOC4, Q96A65]",below the threshold
2,"GDSSRKEYFI [GYPC, P04921]",3.97

# Molecular target: LNX1_1, Q8TBB1
# Experiment: holdup assay
# Parameters: key: below the threshold = too weak to quantify, mostly under pKd 3.1 to 4
# Settings: plain residues with an end cap or a label only (N-terminal biotin on a linker: ado-ado)
# Sequence of LNX1_1, Q8TBB1 (Q8TBB1 261-371): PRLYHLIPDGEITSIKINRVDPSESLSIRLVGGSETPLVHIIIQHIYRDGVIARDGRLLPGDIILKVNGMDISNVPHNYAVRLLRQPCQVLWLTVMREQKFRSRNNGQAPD
row,Binder,pKd
1,"ATKDKKITTV [EXOC4, Q96A65]",3.69
2,"GDSSRKEYFI [GYPC, P04921]",below the threshold

# Molecular target: MAGI2_2, Q86UL8
# Experiment: holdup assay
# Parameters: key: below the threshold = too weak to quantify, mostly under pKd 3.1 to 4
# Settings: plain residues with an end cap or a label only (N-terminal biotin on a linker: ado-ado)
# Sequence of MAGI2_2, Q86UL8 (Q86UL8 410-522): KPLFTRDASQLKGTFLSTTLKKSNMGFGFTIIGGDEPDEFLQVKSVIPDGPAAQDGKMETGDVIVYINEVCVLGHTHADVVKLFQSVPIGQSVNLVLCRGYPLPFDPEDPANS
row,Binder,pKd
1,"ATKDKKITTV [EXOC4, Q96A65]",5.52
2,"GDSSRKEYFI [GYPC, P04921]",3.6

# Molecular target: MAGI2_6, Q86UL8
# Experiment: holdup assay
# Parameters: key: below the threshold = too weak to quantify, mostly under pKd 3.1 to 4
# Settings: plain residues with an end cap or a label only (N-terminal biotin on a linker: ado-ado)
# Sequence of MAGI2_6, Q86UL8 (Q86UL8 1141-1229): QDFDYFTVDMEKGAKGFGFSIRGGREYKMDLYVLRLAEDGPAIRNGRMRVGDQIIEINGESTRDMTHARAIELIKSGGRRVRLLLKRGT
row,Binder,pKd
1,"ATKDKKITTV [EXOC4, Q96A65]",3.72
2,"GDSSRKEYFI [GYPC, P04921]",below the threshold

# Molecular target: MAST2, Q6P0Q8
# Experiment: holdup assay
# Parameters: key: below the threshold = too weak to quantify, mostly under pKd 3.1 to 4
# Settings: plain residues with an end cap or a label only (N-terminal biotin on a linker: ado-ado)
# Sequence of MAST2, Q6P0Q8 (Q6P0Q8 1099-1202): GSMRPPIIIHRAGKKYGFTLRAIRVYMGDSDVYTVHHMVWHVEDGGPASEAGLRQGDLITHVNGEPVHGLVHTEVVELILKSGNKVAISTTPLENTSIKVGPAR
row,Binder,pKd
1,"ATKDKKITTV [EXOC4, Q96A65]",4.92
2,"GDSSRKEYFI [GYPC, P04921]",3.68

# Molecular target: T6, MPDZ_12, O75970
# Experiment: holdup assay
# Parameters: key: below the threshold = too weak to quantify, mostly under pKd 3.1 to 4
# Settings: plain residues with an end cap or a label only (N-terminal biotin on a linker: ado-ado)
row,Binder,pKd
1,"ATKDKKITTV [EXOC4, Q96A65]",below the threshold
2,"GDSSRKEYFI [GYPC, P04921]",3.5

# Molecular target: NHERF2_2, Q15599
# Experiment: holdup assay
# Parameters: key: below the threshold = too weak to quantify, mostly under pKd 3.1 to 4
# Settings: plain residues with an end cap or a label only (N-terminal biotin on a linker: ado-ado)
# Sequence of NHERF2_2, Q15599 (Q15599 142-238): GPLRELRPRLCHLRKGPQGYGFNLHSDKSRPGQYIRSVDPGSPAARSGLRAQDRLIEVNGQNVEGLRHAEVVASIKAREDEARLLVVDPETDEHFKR
row,Binder,pKd
1,"ATKDKKITTV [EXOC4, Q96A65]",3.6
2,"GDSSRKEYFI [GYPC, P04921]",below the threshold

# Molecular target: NHERF4_4, Q86UT5
# Experiment: holdup assay
# Parameters: key: below the threshold = too weak to quantify, mostly under pKd 3.1 to 4
# Settings: plain residues with an end cap or a label only (N-terminal biotin on a linker: ado-ado)
# Sequence of NHERF4_4, Q86UT5 (Q86UT5 464-550): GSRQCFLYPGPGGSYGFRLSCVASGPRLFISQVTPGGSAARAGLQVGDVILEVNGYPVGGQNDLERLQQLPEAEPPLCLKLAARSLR
row,Binder,pKd
1,"ATKDKKITTV [EXOC4, Q96A65]",3.99
2,"GDSSRKEYFI [GYPC, P04921]",below the threshold

# Molecular target: T7, PCLO, Q9Y6V0
# Experiment: holdup assay
# Parameters: key: below the threshold = too weak to quantify, mostly under pKd 3.1 to 4
# Settings: plain residues with an end cap or a label only (N-terminal biotin on a linker: ado-ado)
row,Binder,pKd
1,"ATKDKKITTV [EXOC4, Q96A65]",below the threshold
2,"GDSSRKEYFI [GYPC, P04921]",below the threshold

# Molecular target: T8, PTPN13_1, Q12923
# Experiment: holdup assay
# Parameters: key: below the threshold = too weak to quantify, mostly under pKd 3.1 to 4
# Settings: plain residues with an end cap or a label only (N-terminal biotin on a linker: ado-ado)
row,Binder,pKd
1,"ATKDKKITTV [EXOC4, Q96A65]",below the threshold
2,"GDSSRKEYFI [GYPC, P04921]",below the threshold

# Molecular target: T9, SHANK1, Q9Y566
# Experiment: holdup assay
# Parameters: key: below the threshold = too weak to quantify, mostly under pKd 3.1 to 4
# Settings: plain residues with an end cap or a label only (N-terminal biotin on a linker: ado-ado)
row,Binder,pKd
1,"ATKDKKITTV [EXOC4, Q96A65]",below the threshold
2,"GDSSRKEYFI [GYPC, P04921]",below the threshold

# Molecular target: T10, TX1BP3, O14907
# Experiment: holdup assay
# Parameters: key: below the threshold = too weak to quantify, mostly under pKd 3.1 to 4
# Settings: plain residues with an end cap or a label only (N-terminal biotin on a linker: ado-ado)
row,Binder,pKd
1,"ATKDKKITTV [EXOC4, Q96A65]",3.91
2,"GDSSRKEYFI [GYPC, P04921]",below the threshold
